assay: label from the status in PepcDB records
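Also: failed if final PepcDB status was selected cloned or expressed and not failed if soluble or beyond.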

For “MKFEGIYTPAITPLSADGSIDTQAFAEVLEFLVESKVHGIVIGGSTGEYYAHTAEERLALAAHASEVIAGRLPLVVGTGAIRTEDSLAYAEAARAIGADAILVGSPPYALPTSREIAEHVLAVDRAAGLPIMLYNYPARMGVEMDEAFFAAVAGCRNIVAIKESSGSTAQLHRLACRHPRIALSCGWDDQALEFFAWGARSWVCAGSNFIPGEHLALYQACVVENDFAKGRRIMAAMMPLMDFLESGHFVQSIKHGCELAGLRAGGVRAPLKALDEAGKAALAEIVARLKGEVAR”, which protein production is on record?
The protein production was “failed”.

For “MKFGRKCRIIVFISLVLFTFPVFSQDKNFTDKPSSSDKRVASEEFRRGVQAYYRGTFNEAILLFEKALSYLPDESLILDWLGKAYYSSGVEGAALTQWELAEAAGYGGMLLKNKIEILKESRSLTPYSSDNIKYVENSSFSSKNGTVELFRQPLSIAAVSDGSFWMTAYGSNELLHFNVNGIILDRTKGPIQGFDRPFDVIALSDGNLLVSEFAADRISLLDKNGSFIKSFGTRGRGNGEFIGPQFLAEDEYGNIYVCDFGNARIVVFSSAGEPLFTFGKKSGLFGGFTAPAGIAVVDGLVYIADAIKGAVYTFDTAGNFVQSLLPEGTLKQIESLREWNGNLVASAGNKAYLIDIAFSTVSELTSLGNVPTKITAAVPDVNGSLLLIDHKNQTVEITSRINELAGGLFVLIKKVYSDKFPEVLVEVSVQNRDGKQIVGLTQDNFIITEGNRPVADYSLTGSSYLNKTCDIAVIVERSPNSLKEKALIEAALKEIAEAMQGRGKISLISASSIPALEGKFSPADLITLPNRIKTPASSDWKLDLALRLAVGELINAEQKRAVLFLNFSDPNSDNFKQYNLNDLASYMKNNNIRFYPISLKKGAPASEMSYLAKKTGGKTSYIYAERGLKPLIDDIIEKPLGMYQLKYTSTMSTDFGRSFLPVEVEVQLLERSGRDEIGYFAPLE”, which protein production is on record?
The protein production was “failed”.

For “MKFLELNKKRHATKHFTDKLVDPKDVRTAIEIATLAPSAHNSQPWKFVVVREKNAELAKLAYGSNFEQVSSAPVTIALFTDTDLAKRARKIARVGGANNFSEEQLQYFMKNLPAEFARYSEQQVSDYLALNAGLVAMNLVLALTDQGIGSNIILGFDKSKVNEVLEIEDRFRPELLITVGYTDEKLEPSYRLPVDEIIEKR”, which protein production is on record?
Its protein production is “not failed”.

Which protein production does the source give for “MKFLVENLNGSSFELEVDYRDTLLVVKQKIERSQHIPVSKQTLIVDGIVILREDLTVEQCQIVPTSDIQLEVSS” here?
Its protein production is “not failed”.

For “MKFRGNFVCQPRAGPAESRPTRPFTPRPSATGSLFMSNQHFVSPDLIRQGFSRAMSDMYREEVPLYGALMELVAEVNAQVLERQPALARHLQSSGELQRLDLERHGAIRVGSAAELATLARLFAVMGMQPVGYYDLTPAGVPVHSTAFRAVHEAALQVSPFRVFTSLLRLELIDNPELRSFAEQVLARRQIFTPQVLELIQQAEAAGGLDAEDAERFIRQALETFRWHHHATVTAAQYASLSAQHRLIADVVAFKGPHINHLTPRTLDIDEVQRLMPARGITPKAVIEGPPRRECPILLRQTSFKALEESVAFTDQAQSQGSHSARFGEIEQRGAALTPKGRELYDRLLNAARDALGDFPNEANAQRYNQLMQEHFREFPDSHPAMREQGLAYFRYFVSETGLAARNQPQRPTTLAALLAAGHLSAEPLVYEDFLPVSAAGIFQSNLGDDSQSHYAGQSNRQAFEAALGRPTLDELQLYAQTQQRSLEHCAATLGLPALLEHHHHHH”, which protein production is on record?
The protein production was “failed”.

With “MKFTKNQFIWLVVLFFSCFLIYTYWETVVSICNKIFVASQPFLFGAGIAFVVNILMSFYEKILIKFIPFGFITKIKRPVSLLLAFATIGLIFTWVVFTVLPDLIDSINTLISQDRSAINNLINWLLKNKSLQKIIQDLGGVTQVRELINSYSAQLLQQIMNGLTNFLTSLTSLPSTLINLFISIVFSCYVLVGKEKLGSQVNRLVDVYLGRYGKTFHYVVAILNNRFHNFFVYQSIEACILGTLCYIGMRIFNFPYAATISILIGFSAMIPVLGAYIGVTIGTILIMTHSVTLALLFVAYVVILQQFEGNLIYPYVVGGSTGLPVVWVILAITIGSALGGILGMLVSVPVAATLYQIVKDNVVTREKAKAVASLENSD” as the sequence, how does the protein production read?
Its protein production is “not failed”.

For “MKGILFAVFAGIFITLQGTFNAKLSSHIGIWSTSIITHLIGFIIATTVFLLKKEEKVTDLKSVKKIYLVAGAFGGFIICAETMAIYSLGVTLTAGTLMAAQLLTATVIEMKGLFHIKKIQMERYHIVGTIVMIIGIVVFNM”, which protein production is on record?
Its protein production is “failed”.

With “MKGLRRLVLDVLKPHEPKTIVFALKLSELENVDGVNIHLSEIDQATENIKITILGNNLDYEQIKGVIEDLGGVIHSVDEVVAGKIIVESVKTEQDLEHHHHHH” as the sequence, how does the protein production read?
Its protein production is “failed”.

With “MKGNCLLKEYQVTMSDDAKADLLSIYHYVRDELCAPQAADDLLERLSQGMLSLSIFPERCAIIEDLIGKGYTFRQLIVKKYRIVYHVLEDEVIIVAVVYGSRHMNNWLEHHHHHH” as the sequence, how does the protein production read?
Its protein production is “failed”.

For “MKGNSFGEIISSEDIGLRKGADSSHEIITSIPSGARVNIIDKMSKDWYKVSYKDFTGYLQAKDIRVLGLEHHHHHH”, which protein production is on record?
The protein production was “failed”.

With “MKGTFTNLLVLLLIALVCANVGARKLISEDTQFKDEKSFLGGGGSGDGLGLGLGGGAGLGGLGIGAGIGAGAGLGLGGGGGGLGGGGGGLLGGGGFGGGAGGGLGGLP” as the sequence, how does the protein production read?
Its protein production is “failed”.

For “MKHFKLPDLGEGLQEAEIVEWHVKAGDSVRADQRLVSVETAKALVDIPAPYDGVVGKLFGAEGDILHVGEPLVGFEGEEADAGTVVGRLEGGGSALEDRFFIGAAPSTREHLAPRATPAVRQFARQQGVELAGLSGSGPDGLITRADVEAAAQGTRERFGGERLRGVRRSMALNMARSHAEVVPVTIYGDADLHRWKTARDPLIRLAQALAEACRAEPTLNAWFDGASLSLKLHERLDLGIAVDTPDGLFVPVLRDVGARSAEDLRAGMRRLREDVQARSIPPAEMLGATLTLSNFGTLFGRYANPVVVPPQVAILGAGGIRDEVVAWRGEMAIHPILPLSLSFDHRAATGGEAARFLKVLVNALEQPD”, which protein production is on record?
The protein production was “failed”.

For “MKHFLTLRDFSKEEILSLVNHASELKKEPKKLLQDKTLAMIFEKNSTRTRMAFELAITELGGKALFLSSNDLQLSRGEPVKDTARVIGAMVDFVMMRVNKHETLLEFARYSKAPVINALSELYHPTQVLGDLFTIKEWNKMQNGIAKVAFIGDSNNMCNSWLITAAILGFEISIAMPKNYKISPEIWEFAMKQALISGAKISLGYDKFEALKDKDVVITDTWVSMGEENEKERKIKEFEGFMIDEKAMSVANKDAILLHCLPAYRGYEVSEEIFEKHADVIFEEARNRLYVVKALLCFLDNQRGRE”, which protein production is on record?
Its protein production is “not failed”.

Which protein production does the source give for “MKHIHIIGIGGTFMGGLAAIAKEAGFEVSGCDAKMYPPMSTQLEALGIDVYEGFDAAQLDEFKADVYVIGNVAKRGMDVVEAILNLGLPYISGPQWLSENVLHHHWVLGVAGTHGKTTTASMLAWVLEYAGLAPGFLIGGVPENFGVSARLPQTPRQDPNSQSPFFVIEADEYDTAFFDKRSKFVHYRPRTAVLNNLEFDHADIFADLGAIQTQFHYLVRTVPSEGLIVCNGRQQSLQDTLDKGCWTPVEKFGTEHGWQAGEANADGSFDVLLDGKTAGRVKWDLMGRHNRMNALAVIAAARHVGVDIQTACEALGAFKNVKRRMEIKGTANGITVYDDFAHHPTAIETTIQGLRQRVGGARILAVLEPRSNTMKLGTMKSALPVSLKEADQVFCYAGGVDWDVAEALAPLGGRLNVGKDFDAFVAEIVKNAEVGDHILVMSNGGFGGIHGKLLEALR” here?
Its protein production is “not failed”.

For “MKHKGLIRSYEMEFAFLYRLSDLAVIVTFMLLLVLKDTNTSMDKDYVILSFVGGISFLFMAESGNLYRSWRTSSFREQMFIVCMSWLMTSALLFMVLYFSEVYPLFDRSILALWVTITPALLLAWRVTFRTVLAYLRKMGFNTRTAIIIGQTPHGITLANEIQNHTEHGVLFDGFYDERSSDRLPSSEYPIKGAVNQALERAKRGEVDYVYIAMPMHAKERIASILNQFSDTTANTYLIPDFFTYNLLHSRWDQIGQVQTLSVFDTPFAGVSSWIKRFEDILCSSIILVLISPILLAIAIGIKLTSKGPVIFKQHRYGLDGRKIEVWKFRSMTTMDQGPNIKQATKNDPRITPFGSFLRRTSLDELPQFINVLQGTMSIVGPRPHAVAHNEEYRQIVARYMLRHKVKPGITGWAQINGYRGETDTLDKMEKRVEFDLDYIHHWSVWMDIKIIFLTVFKGFTGSNAY”, which protein production is on record?
The protein production was “failed”.

Which protein production does the source give for “MKHPDALRIALVGIGKIARDQHVPTIAARDDVQLVATVSRHGTVDGVPAYHTLEDAFAAQPQIEAVALCTPPVGRHALAQAALAAGRHVFLEKPPAATLAEIHDLQDVAQRAQRTLFTSWHSRCAAGVEPARAWLADKQLVRAHITWKEDIRHWHPGQDWILEPGGMGVFDPGINALSIATHLLPRSLALRDAELHTPENRQAPLYARLAFVDTAGLPVTAEFDFLQTGHQRWDIEVETTAGMLMLSEGGAKLRIEGQLQALPASSEYDGLYGRFVQLVRAGQSEVDIAPFVHVADAFMLGARQVTAPFAW” here?
The protein production was “failed”.

Which protein production does the source give for “MKHPDPAQKVEGTTATTPTKVAAFFDLDKTIIAMSSTYAYGREFMNSGLISPVEALQLSLAQATYMFAGHTSEQMDNTRDQLTAMIRGWEVQQVRSIAEETMHSVVTPTIYAEARELIEHHQELGHDVIIISASVKELVEPIARELGVHKTVTTVLEAHDGMYTGEVLFYCKGDAKAQSILDLAEANNYDLSLSFAYSDSFTDLPMLEAVGNPAAVNPDRALKKIALEQGWKILSFKNPEPLFQMPSTRDVGIGTGVVAGIAAVTAGSIWWMKRARRGSA” here?
The protein production was “failed”.

With “MKHVHGNGLVLGAAAFVFLAAQPVSAQTTQITEVKLNPGNGGLSVVLKTSAGSRPQVFTTKRGKALVADIINTQLRLPQGNNFRQDKPAAGIASVEVVQLDANSIRVIVTGDSDAPTSQPVIRQQDGITLSLTPSTGTTASAPVTPRPPVSTTPPASTPAQTGVVPNVLVPNPQVTIDGKPAQPAGPGQPLSQAPPFLPRAVAPPVGDIAISATDASPSTIDLGTQERVPRLVLRDAPVREVLSLLARAANLNLAYISDGVGGTPAAGGQGISQTISLDIENEPVQDVFNYVLRLSGLEANRSNRTIFVGPKLPNSTRDVVMRNLRLNQVNVGVALNFLVGLGAETAVSRERQVTNVNAVPVGTGVAPITQTQTTTETRVETQRINFQDSNPLLRGLQALGDERTNSLTLIGPPKLVEMAMNQLTQLDIRRRQVVVNVKIIDVNLSNTQDNNASLSFGIGNNYFSSDGGAASLNIGGLNPPSAGNVRNSLNPTVTTNPYSSGNTFLDLTQSVGPVPDTGVDTRNITINNPGGGSITETQGQDLNFVQRRAGISGDPFETGITAVTQGTPNIIRRTTTTDPTTGAVTETTTVTEGTRGSITAALPSLFQYPKRLLANLQAQVTNGNAKILTDPTLIVQEGQTANVKLTQEVVGNITSETTRGDGASTQTVTAEKTDVGLTLAVKIDRIDDNGFVSLSVAPVVKAPQSSAVINVSGNSQTIFLVSERSLNSGMIRLRDGQTLILSGIIQDQDRTSVSKIPILGDIPLIGSLFRKTNRTNERREVIVLLTPQVMDDSQNSSYGYNYSPSPEVRQMLERRGLNTPRR” as the sequence, how does the protein production read?
The protein production was “failed”.

For “MKHVRSHLPRVLLGLMISVSLVLAGCANNGTGSSMLGGSGTDPDPRLTKSTDSSFFSTSGLTACAAAAGVGILACAVASPSDKVKCMVVAGIAACGVAMGANYYYDYRRSKYSNTAQRLQLMNDDVKADTEKVAQRTYTLQQVINDDKERIAGIQKSIKTKTLDKAKAQQEIASVDSNLAQMNKDLTGMRSKVAEYKKTADLERASDGGTQVTAIDGEISKMNSKVASLQKEVDGLYSQRQAITLG”, which protein production is on record?
Its protein production is “failed”.

Which protein production does the source give for “MKIAIAGAGAMGSRLGIMLHQGGNDVTLIDQWPAHIEAIRKNGLIADFNGEEVVANLPIFSPEEIDHQNEQVDLIIALTKAQQLDAMFKAIQPMITEKTYVLCLLNGLGHEDVLEKYVPKENILVGITMWTAGLEGPGRVKLLGDGEIELENIDPSGKKFALEVVDVFQKAGLNPSYSSNVRYSIWRKACVNGTLNGLCTILDCNIAEFGALPVSESLVKTLISEFAAVAEKEAIYLDQAEVYTHIVQTYDPNGIGLHYPSMYQDLIKNHRLTEIDYINGAVWRKGQKYNVATPFCAMLTQLVHGKEELLGAK” here?
The protein production was “not failed”.
